Reference: US20220389097A1 (Genentech, published 2022)
Substitutions are numbered along the chain they refer to. Names may count otherwise.

T1: human TREM2 on cells (human, UniProt Q9NZC2 19-230)
T1 sequence: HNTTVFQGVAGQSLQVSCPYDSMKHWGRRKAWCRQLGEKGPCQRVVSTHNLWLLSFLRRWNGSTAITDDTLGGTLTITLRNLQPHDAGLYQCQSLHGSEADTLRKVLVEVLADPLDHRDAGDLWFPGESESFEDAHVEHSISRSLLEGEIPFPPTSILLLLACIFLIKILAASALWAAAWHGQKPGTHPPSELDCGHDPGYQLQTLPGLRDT

T2: soluble monomeric human TREM2 (human, UniProt Q9NZC2 19-174, limits assumed)
T2 construct: Not the same as shed sTREM2; also called soluble monomeric TREM2
T2 sequence: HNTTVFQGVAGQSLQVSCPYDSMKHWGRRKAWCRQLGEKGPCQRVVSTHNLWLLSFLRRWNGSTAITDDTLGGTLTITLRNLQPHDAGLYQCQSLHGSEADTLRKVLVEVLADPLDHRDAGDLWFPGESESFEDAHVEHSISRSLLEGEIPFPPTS

T3: human TREM2-Fc (human, UniProt Q9NZC2 19-174)
T3 construct: also called hTREM2; not shown: Fc part (captured by anti-human IgG1 Fc or protein A)
T3 sequence: T2 sequence

T4: cynomolgus TREM2-Fc (cynomolgus monkey, UniProt A0A2K5UY34 49-204)
T4 construct: also called cyno TREM2; not shown: Fc part
T4 sequence: T2 sequence with A10E, W60R, L89F, F125V

B1: hPara.09.v2 Q100P/V104L (antibody, human IgG1, V domains shown)
VH: EVQLVESGGGLVQPGGSLKLSCATSGFPFSNVWLHWVRQASGKGPEWVAHIKAKSDNYATYYAESVKGRFTISRDDSKNTVYLQMNSLKTEDTAVYYCTDILEYWGQGTLVTVSS
VL: DVVMTQSPLSLPVTPGEPASISCRSSRSLLTSKGITSLYWYLQKPGQSPQLLIYRMSNLASGIPDRFSGSGSGTDFTLKISRVEAEDVGVYYCAQFLVYPYTFGPGTKLEIK
B2: h3.10C2.v1 hIgG1 N297G (antibody, V domains shown)
VH: EVQLVESGGGLVQPGGSLKLSCATSGFPFSNVWMHWVRQASGKGLEWIAHIKAKSDNYATYYAESVKGRFTISRDDSKTTIYLQMNSLKTEDTAVYYCTGLDYWGQGTTVTVSS
VL: B1 VL with I63V, P105Q, L109V
notes: Human IgG1 N297G; also called h3.10C2.v1.huIgG1.N297G
B3: 3.10C2 IgG (rat variable regions; captured by anti-CH1 or anti-human Fab chips) (antibody, V domains shown)
VH: EVQLVETGGSLVQPGKSLKLTCATSGFPFSNVWMHWVRQSPEKQLEWIAHIKAKSDNYATYYAESVKGRFTISRDDSKTSIYLQMNSLKEDDTAIYYCTGLDYWGQGVMVTVSS
VL: DTVLTQAPLSLSVTPGESASISCRSSKSLLGVRDITSLYWYLQKPGKSPQLLIYRMSNLASGVPDRFSGSGSETDFTLKISEVETEDVGVYYCAQFLRYPYTFGPGTKLELK
notes: also called parental 3.10C2 clone; 3.10C2 control
B4: 3.10C2-H6/3.10C2-L1 Fab (Fab, V domains shown)
VH: B2 VH with I48V, T79N
VL: B3 VL with A7S, S12P, S18P, K47Q, E82R, T85A, P105Q, L109V, L111I
B5: 3.10C2 Fab (Fab, V domains shown)
VH: B3 VH
VL: B3 VL
notes: also called 3.10C2 (3.10C2); Rat3.10C2
B6: 3.10C2-H4/3.10C2-L1 Fab (Fab, V domains shown)
VH: B2 VH with T24A, A49G, T79N
VL: B3 VL with A7S, S12P, S18P, K47Q, E82R, T85A, P105Q, L109V, L111I
B7: 3.10C2-H7/3.10C2-L1 Fab (Fab, V domains shown)
VH: B2 VH with I48V, T79N, I81A
VL: B3 VL with A7S, S12P, S18P, K47Q, E82R, T85A, P105Q, L109V, L111I
B8: 3.10C2-H2/3.10C2-L1 Fab (Fab, V domains shown)
VH: B2 VH with I48V, A49G, T79N
VL: B3 VL with A7S, S12P, S18P, K47Q, E82R, T85A, P105Q, L109V, L111I
B9: Para.09 Fab with the 3.27H7 light chain (Fab, V domains shown)
VH: EVQLVETGGSLVQPGKSLRLTCATSGFPFSNVWLHWVRQSPEKHPEWVAHIKAKSDNYATYYAESVKGRFTISRDDSKSSVFLQMNSLKEEDTAIYYCTDILEYWGQGTLVTVSS
VL: DVVLTQAPLSVSVTPGESASISCRSSRSLLTSKGITSLYWYLQKPGMSPHLLIYRMSNLASGIPDRFSGSGSETDFTLKISEVEPEDVGVYYCAQFLVYPYTFGAGTKLELK
notes: Fab fragment; also called Para.09 (3.27H7); Para.09-L27H7
B10: Para.09 Fab with the 3.18E5 light chain (Fab, V domains shown)
VH: B9 VH
VL: B3 VL with L11V, S26N, V32I
notes: also called Para.09 (3.18E5)
B11: Para.09 Fab with the 3.50G1 light chain (Fab, V domains shown)
VH: B9 VH
VL: B3 VL with L11V, S26N, V32I, Y41F, K112Q
notes: also called Para.09 (3.50G1)
B12: Para.09 Fab with the 3.10C2 light chain (Fab, V domains shown)
VH: B9 VH
VL: B3 VL
notes: also called Para.09 (3.10C2)
B13: hPara.09.v2 Fab (Fab, V domains shown)
VH: B1 VH
VL: B1 VL with P105Q, L109V
notes: also called Para.09-H5/3.27H7-L6
B14: h3.10C2.v1 Fab (Fab, V domains shown)
VH: B2 VH
VL: B1 VL with I63V, P105Q, L109V
notes: also called 3.10C2-H1/3.27H7-L6

Each binder was assayed against T1, human TREM2 on cells (assay: cell-based or functional assay).

Row | Binder | EC50, average X04 plaque intensity, human iPSC-derived microglia plaque assay (FIG. 24C) | EC50, survival of iPSC-derived microglia (FIG. 23E) | EC50, total Abeta plaque intensity, human iPSC-derived microglia plaque assay (FIG. 24B) | phospho-SYK/total SYK relative to anti-gD control, iPSC-derived microglia, 1 hour | phospho-SYK/total SYK relative to anti-gD control, iPSC-derived microglia, 4 hours
1 | B1 | 40 nM | 0.19 nM | 770 nM | 2 fold | > 10 fold
2 | B2 | 11 nM | 0.35 nM | 130 nM |  | 

The binders below were run against T2, soluble monomeric human TREM2 (assay: SPR (Biacore T200), 37 C; IgG on anti-CH1 chip, soluble monomeric TREM2).

Row | Binder | Kd | koff | kon
3 | B2 | 0.42 nM | 0.00035 s⁻¹ | 840000 M⁻¹ s⁻¹
4 | B3 | 0.12 nM | 9.6e-05 s⁻¹ | 780000 M⁻¹ s⁻¹

Molecular target: T1, human TREM2 on cells
Assay: cell-based or functional assay
Remark: another data set of the same source

Row | Binder | EC50, Jurkat NFAT luciferase reporter cells | IC50, TREM2 shedding inhibition in Jurkat-NFAT reporter cells (sTREM2 ELISA)
5 | B1 | 0.0232 µg/mL | 0.114 µg/mL
6 | B2 | 0.076 µg/mL | 0.975 µg/mL

These binders were tested against T3, human TREM2-Fc (assay: SPR (Biacore T200), 37 C; TREM2-Fc on protein A chip, Fab in solution).
Experimental: The humanized heavy chain variants were tested for affinity by combining the heavy chain variants with the 3.10C2-L1 light chain. These variants were expressed as Fab fragments, purified by protein A chromatography, and tested for affinity for TREM2-Fc coated on a protein A chip with a Biacore™ T200 apparatus.

Row | Binder | koff | kon
7 | B4 | 0.0013 s⁻¹ | 210000 M⁻¹ s⁻¹
8 | B5 | 0.00019 s⁻¹ | 720000 M⁻¹ s⁻¹
9 | B6 | 0.024 s⁻¹ | 1.2e+06 M⁻¹ s⁻¹
10 | B7 | 0.018 s⁻¹ | 1.2e+06 M⁻¹ s⁻¹
11 | B8 | 0.0059 s⁻¹ | 520000 M⁻¹ s⁻¹

The binders below were run against T3, human TREM2-Fc (assay: SPR (Biacore T200), 37 C; TREM2-Fc on anti-human IgG1 Fc chip, Fab in solution).
Experimental: (§1) Briefly, clone variants were expressed as Fab fragments and purified by anti-CH1 affinity chromatography followed by size exclusion chromatography. TREM2-Fc antigens were immobilized on anti-human IgG1 Fc Biacore™ chips and soluble Para.09 variant and 3.10C2 clone Fab fragments were bound to immobilized TREM2 at 37° C.

Row | Binder | Kd | koff | kon
12 | B5 | 0.2 nM | 0.00017 s⁻¹ | 850000 M⁻¹ s⁻¹
13 | B9 | 0.0042 nM | 2.7e-05 s⁻¹ | 6.3e+06 M⁻¹ s⁻¹
14 | B10 | 0.005 nM | 2.8e-05 s⁻¹ | 5.6e+06 M⁻¹ s⁻¹
15 | B11 | 0.0011 nM | 5.8e-06 s⁻¹ | 5.1e+06 M⁻¹ s⁻¹
16 | B12 | 0.0038 nM | 2.7e-05 s⁻¹ | 7.1e+06 M⁻¹ s⁻¹

The binders below were run against T4, cynomolgus TREM2-Fc in the same assay as above.
Experimental: as §1

Row | Binder | Kd | koff | kon
17 | B5 | 0.22 nM | 0.00015 s⁻¹ | 680000 M⁻¹ s⁻¹
18 | B9 | 0.0025 nM | 1.2e-05 s⁻¹ | 4.8e+06 M⁻¹ s⁻¹
19 | B10 | 0.0024 nM | 8.9e-06 s⁻¹ | 3.8e+06 M⁻¹ s⁻¹
20 | B11 | 0.002 nM | 7.9e-06 s⁻¹ | 3.9e+06 M⁻¹ s⁻¹
21 | B12 | 0.0016 nM | 7.8e-06 s⁻¹ | 4.8e+06 M⁻¹ s⁻¹

The binders below were run against T3, human TREM2-Fc (assay: SPR (Biacore T200), 37 C; TREM2-Fc on protein A chip, soluble Fab).
Experimental: (§2) Affinity of h3.10C2.v1 (FIGS. 9A-B) for human and cynomolgus TREM2 was determined by SPR in a Biacore™ T200 apparatus in two formats, both at 37° C. In one format TREM2-Fc was immobilized on protein A chips and soluble anti-TREM2 Fab fragments used as ligands. In the second format, anti-TREM2 IgG was immobilized on anti-CH1 Biacore™ chips and used soluble monomeric TREM2 as ligand.

Row | Binder | Kd | koff | kon
22 | B13 | 0.021 nM | 6.1e-05 s⁻¹ | 3e+06 M⁻¹ s⁻¹
23 | B5 | 0.19 nM | 0.00018 s⁻¹ | 910000 M⁻¹ s⁻¹
24 | B14 | 0.39 nM | 0.00057 s⁻¹ | 1.5e+06 M⁻¹ s⁻¹
25 | B9 | 0.015 nM | 3.5e-05 s⁻¹ | 2.3e+06 M⁻¹ s⁻¹

The binders below were run against T4, cynomolgus TREM2-Fc in the same assay as above.
Experimental: as §2

Row | Binder | Kd | koff | kon
26 | B13 | 0.022 nM | 6.3e-05 s⁻¹ | 2.9e+06 M⁻¹ s⁻¹
27 | B5 | 0.22 nM | 0.0002 s⁻¹ | 910000 M⁻¹ s⁻¹
28 | B14 | 0.43 nM | 0.00062 s⁻¹ | 1.4e+06 M⁻¹ s⁻¹
29 | B9 | 0.018 nM | 4.1e-05 s⁻¹ | 2.3e+06 M⁻¹ s⁻¹
